Data as given in patent US6420532B1, “Method of obtaining compositions comprising Y2 specific compounds” (Synaptic Pharmaceutical Corporation, priority 1994, dated 2002).
Where two headings read alike, the source gives them in different places. Each block holds one molecule with its values, some of them ahead of it. Where no end group is shown, it is not given here.

Key:
[1] = target: human hippocampal Y2 receptor (clone CG-13) (human) (UniProt P49146); assay: 125I-PYY displacement, COS-7 membranes, Ki from IC50
[2] = target: human hippocampal Y2 receptor (clone CG-13) (human) (UniProt P49146); assay: as above; remark: listed apart in the source
human Y1 receptor [3] = target: T1, human Y1 receptor (human, UniProt P25929 1-384); assay: as above
T1 construct: whole, on cells; transiently expressed in COS-7 cells; membranes used; also called Y1 gene
T1 sequence (looked up): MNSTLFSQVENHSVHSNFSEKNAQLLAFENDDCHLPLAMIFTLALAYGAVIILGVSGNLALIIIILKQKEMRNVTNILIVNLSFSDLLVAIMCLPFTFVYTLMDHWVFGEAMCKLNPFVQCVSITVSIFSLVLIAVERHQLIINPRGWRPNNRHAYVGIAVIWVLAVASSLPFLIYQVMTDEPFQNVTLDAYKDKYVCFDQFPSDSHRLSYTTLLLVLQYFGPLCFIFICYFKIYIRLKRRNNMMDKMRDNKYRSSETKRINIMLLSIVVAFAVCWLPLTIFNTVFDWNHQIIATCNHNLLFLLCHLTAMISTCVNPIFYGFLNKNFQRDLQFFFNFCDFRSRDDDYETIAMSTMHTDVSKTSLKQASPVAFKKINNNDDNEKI

human Y4 receptor = target: T2, human Y4 receptor (human, UniProt P50391 1-375); assay: as above
T2 construct: whole, on cells; transiently expressed in COS-7 cells; membranes used

[4] = target: rat Y2a receptor (encoded by rs5a) (rat); assay: as above
[5] = target: human hippocampal Y2 receptor (clone CG-13) (human) (UniProt P49146); assay: cell-based or functional assay
[6] = target: T3, CG-13 receptors (human Y2 receptor) (Homo sapiens, UniProt P49146); assay: Competitive displacement of 125I-PYY, membranes of COS-7 cells transiently expressing CG-13 (human Y2); type: binding; details: 100 μM Gpp(NH)p, human Y2 in COS-7
T3 construct: expressed in transfected cells; host or cells: COS-7 (transient, DEAE-dextran)
T3 sequence (P49146 1-381): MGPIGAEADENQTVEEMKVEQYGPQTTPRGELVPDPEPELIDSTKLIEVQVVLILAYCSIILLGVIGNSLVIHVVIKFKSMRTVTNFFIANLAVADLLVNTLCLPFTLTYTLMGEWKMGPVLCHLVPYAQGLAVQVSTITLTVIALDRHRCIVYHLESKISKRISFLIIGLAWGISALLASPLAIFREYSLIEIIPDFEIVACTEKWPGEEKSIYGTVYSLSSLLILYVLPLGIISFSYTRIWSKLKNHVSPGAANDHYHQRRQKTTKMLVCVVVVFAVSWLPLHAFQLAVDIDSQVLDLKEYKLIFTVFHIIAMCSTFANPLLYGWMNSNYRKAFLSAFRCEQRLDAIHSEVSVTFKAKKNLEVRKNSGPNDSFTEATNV

human Y2 receptor [7] = target: T4, human Y2 receptor (Homo sapiens, UniProt P49146); assay: 125I-PYY binding to membranes from 293 stable clone (293-hY2-10); set-up: expressed in transfected cells; details: 100 μM Gpp(NH)p, 0.08 nM 125I-PYY, 293 cell membranes
T4 sequence (P49146 1-381): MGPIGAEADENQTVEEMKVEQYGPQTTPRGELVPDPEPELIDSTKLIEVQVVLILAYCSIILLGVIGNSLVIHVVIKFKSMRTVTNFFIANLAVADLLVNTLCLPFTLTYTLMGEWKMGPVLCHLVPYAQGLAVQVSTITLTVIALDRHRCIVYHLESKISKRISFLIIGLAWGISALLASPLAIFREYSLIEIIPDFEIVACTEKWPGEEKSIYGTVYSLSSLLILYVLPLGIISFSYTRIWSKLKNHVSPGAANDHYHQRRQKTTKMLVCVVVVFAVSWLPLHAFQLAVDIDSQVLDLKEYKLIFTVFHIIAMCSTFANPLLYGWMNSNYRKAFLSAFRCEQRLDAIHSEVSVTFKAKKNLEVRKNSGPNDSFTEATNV

human Y2 receptor [8] = target: T4, human Y2 receptor; assay: 125I-PYY binding to membranes from stably transfected NIH-3T3 cells (N-hY2-5); set-up: expressed in transfected cells; details: 100 μM Gpp(NH)p, 0.08 nM 125I-PYY, NIH-3T3 cell membranes
Excerpt: Two positive clones were identified and isolated for further study (293 clone #10 and NIH-3T3 clone #5). […] The data serve to emphasize that the receptor/G protein interactions for a given receptor clone can vary depending upon the resident G proteins in the host cell line (93). Additional factors such as receptor density and receptor reserve can also play a role (92).

rat Y2a receptor = target: T5, rat Y2a receptor (Rattus norvegicus, UniProt Q9ERC0); assay: Competitive displacement of 125I-PYY, membranes of COS-7 cells transiently expressing rat Y2a; type: binding; details: 100 μM Gpp(NH)p, rat Y2a in COS-7
T5 construct: expressed in transfected cells; host or cells: COS-7 (transient); 4.0 kb EcoRI genomic fragment of rs5a in EXJ.RH
T5 sequence (Q9ERC0 1-381): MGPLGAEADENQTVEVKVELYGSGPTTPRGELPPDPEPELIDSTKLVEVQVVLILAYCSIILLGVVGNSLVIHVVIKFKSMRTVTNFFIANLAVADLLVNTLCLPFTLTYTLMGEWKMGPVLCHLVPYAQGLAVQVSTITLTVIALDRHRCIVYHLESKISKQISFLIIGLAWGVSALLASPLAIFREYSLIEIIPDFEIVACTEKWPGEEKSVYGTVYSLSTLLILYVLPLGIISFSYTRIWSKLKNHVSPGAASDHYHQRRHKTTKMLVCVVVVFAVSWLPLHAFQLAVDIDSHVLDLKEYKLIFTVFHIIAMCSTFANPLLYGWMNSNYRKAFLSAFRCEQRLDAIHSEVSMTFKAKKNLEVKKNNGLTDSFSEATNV

Y1 receptor = assay: Whole cell 125I-PYY binding, COS-7 cells transfected with the Y1 gene; set-up: species or system human; details: 100 fold excess of cold peptide
Method: DNA from pools of ≈5000 independent clones was transfected into COS-7 cells by a modification of the DEAE-dextran procedure (17). COS-7 cells were grown in Dulbecco's Modified Eagle Medium (DMEM) supplemented with 10% fetal calf serum, 100 U/mL of penicillin, 100 μg/mL of streptomycin, 2 mM L-glutamine (DMEM-C) at 37° C. in 5% CO2. The cells were seeded one day before transfection at a density of 30,000 cells/cm^2 in 6 well plates (Becton Dickinson, Lincoln Park, N.J.). On the next day, cells were washed twice with Phosphate Buffer Saline (PBS), 400 μl of transfection cocktail was added containing 1/10 of the DNA from each pool and DEAE-dextran (500 μg/mL) in PBS. After a 30 min. incubation at 37° C., 1.6 mL of chloroquine (80 μM in DMEM-C) was added and the cells incubated a further 2.5 hours at 37° C. The media was aspirated from each well and 1 mL of 10% DMSO in DMEM-C added. After 2.5 min. incubation at room temperature, the media was aspirated, each well washed once with 1 mL PBS and the cells incubated 24 hours in DMEM-C. […]
Since both Y1 and Y2 receptor subtypes are expressed in the hippocampus (2), we analyzed the DNA of positive pools by PCR with Y1 specific primers. […]

human Y2 receptor [9] = target: T4, human Y2 receptor; assay: Intracellular calcium mobilization (Fura-2/AM), stably transfected 293 cells; details: pretreatment 100 ng/ml for 24 hours
[10] = target: T6, human hippocampal Y2 receptor (clone CG-13) (human, UniProt P49146 1-381); assay: 125I-PYY displacement, COS-7 membranes, Ki from IC50
T6 construct: 381 amino acids; also called CG-13 receptor; human Y2
T6 sequence: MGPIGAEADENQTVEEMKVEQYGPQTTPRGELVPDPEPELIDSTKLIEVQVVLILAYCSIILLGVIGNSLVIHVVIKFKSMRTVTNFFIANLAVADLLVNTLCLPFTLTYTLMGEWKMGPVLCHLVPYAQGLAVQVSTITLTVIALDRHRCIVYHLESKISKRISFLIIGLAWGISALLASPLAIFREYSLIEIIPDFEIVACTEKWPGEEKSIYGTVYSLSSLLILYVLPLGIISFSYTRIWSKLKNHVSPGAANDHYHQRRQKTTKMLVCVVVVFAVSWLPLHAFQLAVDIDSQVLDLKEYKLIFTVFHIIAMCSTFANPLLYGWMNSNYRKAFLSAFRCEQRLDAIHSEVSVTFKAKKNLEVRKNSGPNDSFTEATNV

[11] = target: T6, human hippocampal Y2 receptor (clone …); assay: as above; remark: listed apart in the source
human Y1 receptor [12] = target: T1, human Y1 receptor; assay: as above; remark: listed apart in the source

T2 sequence (P50391 whole entry): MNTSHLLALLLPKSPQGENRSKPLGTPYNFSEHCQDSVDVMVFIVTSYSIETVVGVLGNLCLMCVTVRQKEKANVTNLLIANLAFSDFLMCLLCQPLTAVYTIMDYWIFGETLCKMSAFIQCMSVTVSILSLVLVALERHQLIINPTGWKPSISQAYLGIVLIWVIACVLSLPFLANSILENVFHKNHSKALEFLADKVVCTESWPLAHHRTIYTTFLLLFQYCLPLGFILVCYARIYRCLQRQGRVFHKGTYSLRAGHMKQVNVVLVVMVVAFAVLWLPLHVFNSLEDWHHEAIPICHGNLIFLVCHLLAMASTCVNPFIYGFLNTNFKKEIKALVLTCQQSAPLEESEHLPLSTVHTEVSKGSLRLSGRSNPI
Sequence of PP, salmon (peptide) (P69092 whole entry): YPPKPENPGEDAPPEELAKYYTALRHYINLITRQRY
Sequence of PP, avian (peptide) (P68249 whole entry): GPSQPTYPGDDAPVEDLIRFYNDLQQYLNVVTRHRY

Ki [1]: > 1000 nM
Ki [2]: > 300 nM
Molecule: human NPY free acid (from UniProt P01303 29-64) (peptide)

Ki [1]: > 1000 nM
Ki (human Y1 receptor [3]): 400 nM
Ki (human Y4 receptor): 7 nM
Molecule: PP, avian (peptide)

Ki [4]: 0.17 nM
Ki (human Y1 receptor [3]): 0.2 nM
Ki (human Y4 receptor): 3.2 nM
EC50, inhibition of forskolin-stimulated cAMP accumulation, stably transfected 293 cells [5]: 0.07 nM
Molecule: PP, salmon (peptide)

decrease of specific binding of 125I-PYY [6]: 4%
reduction of specific binding of 125I-PYY (human Y2 receptor [7]): 32%
reduction of specific binding of 125I-PYY (human Y2 receptor [8]): 6%
decrease of specific binding of 125I-PYY (rat Y2a receptor): 23%
Molecule: Nc1nc2c(ncn2[C@@H]2O[C@H](COP(=O)(O)OP(=O)(O)NP(=O)(O)O)[C@@H](O)[C@H]2O)c(=O)[nH]1 [Gpp(NH)p]

Molecule: [Leu^31,Pro^34]NPY: analog of NPY modified at residues 31 and 34, species not stated
inhibition of binding of 125I-PYY (Y1 receptor): totally inhibited

Molecule: pertussis toxin
decrease of the response to 300 nM human PYY (human Y2 receptor [9]): 93%

Ki [10]: > 825 nM
Ki [11]: 830 nM
Ki (human Y1 receptor [12]): 240 nM
Ki (human Y4 receptor): 0.05 nM
Molecule: APLEPEYPGDNATPEQMAQYAAELRRYINMLTRPRY-NH2 (peptide, UniProt P01302 30-65, looked up, mature; also called bovine PP) [PP, bovine]

Ki [11]: > 1000 nM
Molecule: YPSKPDNPGEDAPAEDMARYYSAL-NH2 (peptide, UniProt P01303 29-52, looked up, range 1-24) [NPY1-24 amide, human]
